Data on 131 substances can be found in the supplement of paper PMC12042874.

± gives the uncertainty stated by the source.

The data set in a line: amyloid nucleation score (Sup35N fusion, yeast selection) (log enrichment); library NNK3; higher = more nucleation; inactive = no reads after selection. The gist of the method:
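The nucleation score, computed with DiMSum, is the log enrichment of output over input reads, centred on the mode score of non-aggregating sequences. Sequences with under 100 input reads were dropped. Reads were generated by Illumina sequencing of plasmid inserts from psi-negative yeast with Sup35N fused to peptides of 20 random codons, induced with 100 μM copper sulfate for 24 hours and grown 7 days at 30°C on medium lacking adenine and uracil.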
SLLWCKANPKRF: the amyloid nucleation score entry was “inactive”.

Regarding EYSLTLPYFVGSALPPQNTC, the amyloid nucleation score entry was “inactive”.

Consider AILSTLVNTVNRELRQGRLM, for which the amyloid nucleation score result is “inactive”.

In turn, FNCGPCIVLEWYFTSVAGQG registered an amyloid nucleation score of 2.1 ± 0.071.

As for LASRMMFSLTDAMTDADGSV, the amyloid nucleation score entry is “inactive”.

Take IRLWQEHWNWRGRSLFFRWC: the amyloid nucleation score entry is “inactive”.

With GKCRQGYTRMWHNYMLMGIL, the amyloid nucleation score entry is “inactive”.

Regarding AFCRNRTNVCMICYLRSG, the amyloid nucleation score was determined as 0.907 ± 0.17.

Turning to ITRTSDLFMLGSLINRGIAA, the amyloid nucleation score result was “inactive”.

As for SWLFHRYFVGSYCVLMDMRV, the amyloid nucleation score result is “inactive”.

Take GTYLVSDAAGFYSWYLHYSF: the amyloid nucleation score entry is “inactive”.

Regarding KPLCLFQARRYRW, the amyloid nucleation score result was “inactive”.

Regarding IMHGSNMVRRGLVQY, the amyloid nucleation score result is “inactive”.

LVWDKVSVVWNSKEGVNVRI: the amyloid nucleation score was determined as 0.256 ± 0.22.

Turning to FKLRTDIAMDINVGQDLSGL, the amyloid nucleation score result is “inactive”.

For SVSASRSEVTRE, the amyloid nucleation score is -0.146 ± 0.64.

As for AAISVFCEVFK, the amyloid nucleation score entry is “inactive”.

For ACLIRPRFYPVNHNSVVASL, the amyloid nucleation score entry is “inactive”.

Take SNYCCRVSFVIKLLRMVYNF: the amyloid nucleation score worked out at 2.42 ± 0.08.

With FLALDQISFVIRCLNI, the amyloid nucleation score entry is “inactive”.

As to ILFSQETRYELSL, the amyloid nucleation score result was “inactive”.

As for NNNFRKDSS, the amyloid nucleation score result was “inactive”.

KFSNSASFSGFYFNNYLSSQ showed an amyloid nucleation score of 0.95 ± 0.096.

Consider MVLYGAHECRDDKSVSLTRC, for which the amyloid nucleation score result was “inactive”.

With VLIMYKSGRYVIGSLVLMCL, the amyloid nucleation score entry was “inactive”.

TLHWCMVSNHRAKCYCLFET had an amyloid nucleation score of 0.472 ± 0.42.

For the substance SCMKDMWFVRVMIGLEKKNS, the amyloid nucleation score result was “inactive”.

Consider INVVIRSSHFECTGC, for which the amyloid nucleation score stood at 1.15 ± 0.11.

As to EVWRVSDSYSVDEIFVLLNL, the amyloid nucleation score result is “inactive”.

As for YFEVSLIRLYHEKTTTRMVY, the amyloid nucleation score entry is “inactive”.

Regarding GELRPLIVGDNLGLS, the amyloid nucleation score entry is “inactive”.

For SVSTGVKIACTPTIVDRQLG, the amyloid nucleation score entry was “inactive”.

With TTEDLSVG, the amyloid nucleation score entry is “inactive”.

YRGWLNPEYHRLVN gave an amyloid nucleation score of 0.008 ± 0.85.

For the substance AYELHKTPNGPSPSESLALI, the amyloid nucleation score entry was “inactive”.

VRVTVLFEIHGDVCMLMSVA had an amyloid nucleation score of 0.827 ± 0.13.

In turn, TPYVTGTTEAVKMQHRCNVD returned an amyloid nucleation score of -0.188 ± 0.87.

For LFTKRSYCCSCVVSGSEWAY, the amyloid nucleation score was determined as 0.852 ± 0.21.

The substance VNEIF showed an amyloid nucleation score of 0.432 ± 0.23.

For SCHLEVLFISLFD, the amyloid nucleation score entry was “inactive”.

As to HSLIVYHLS, the amyloid nucleation score entry is “inactive”.

On to NFPYYSEYFFLCIRDSTSKS, for which the amyloid nucleation score result is “inactive”.

For the substance GYMGVGRIVSA, the amyloid nucleation score result is “inactive”.

Consider LTLSYKQERTTARGKPVYLR, for which the amyloid nucleation score result was “inactive”.

As for YDLTFVGWMDYCNLPMVRLI, the amyloid nucleation score entry is “inactive”.

Turning to TSKLRQCGFL, the amyloid nucleation score entry is “inactive”.

With CRYDKSSLDY, the amyloid nucleation score entry is “inactive”.

Turning to VCGNMVSLVVHPFLFSYVCD, the amyloid nucleation score result is “inactive”.

Turning to LSVHTLHNG, the amyloid nucleation score result is “inactive”.

For TCSHVYQTYAVKAASKNIMI, the amyloid nucleation score result is “inactive”.

Substance INGDNAPGYYYIMMIPRDIH gave an amyloid nucleation score of 0.858 ± 0.12.

On to YWLNK, for which the amyloid nucleation score result is “inactive”.

As to RCDNKF, the amyloid nucleation score was 1.2 ± 0.17.

For ESCGRSQHPKEAKELESGAG, the amyloid nucleation score result is “inactive”.

Consider VQTSHHNAVEICCMCLCQML, for which the amyloid nucleation score amounted to 3.02 ± 0.065.

As for CPVKHGGLHYSNQSYHSSGG, the amyloid nucleation score result was “inactive”.

Regarding RILMCMLYAAGSMARYPIWG, the amyloid nucleation score result is “inactive”.

For HSDCDRTVTSGVELDSYGWT, the amyloid nucleation score result is “inactive”.

EIICLSLLCS displayed an amyloid nucleation score of 2.18 ± 0.053.

Regarding CKSNKCSAVMVLVA, the amyloid nucleation score entry is “inactive”.

In the case of LLNVTHSVAMTRTHGGVTYW, the amyloid nucleation score worked out at 0.776 ± 0.17.

Turning to VYRRGDIATLLNDI, the amyloid nucleation score result is “inactive”.

Substance TGYCYMILLRNGVQVSVEGT gave an amyloid nucleation score of 0.092 ± 0.81.

In the case of IVVANMWLLKKNYLRMELFA, the amyloid nucleation score entry is “inactive”.

With MGVIMEGMRFFFVWMQM, the amyloid nucleation score entry is “inactive”.

LLFEMWTWSTVSRRAGDVLS: the amyloid nucleation score entry is “inactive”.

For the substance MSLRLVMWFSNLVSYTV, the amyloid nucleation score entry was “inactive”.

On to VVDCWSVKATSDSYDGMWGV, for which the amyloid nucleation score entry was “inactive”.

For the substance LISMVYLNVRLCQ, the amyloid nucleation score entry was “inactive”.

Turning to GLHVTCGRDYHGWMGDCSMA, the amyloid nucleation score result was “inactive”.

As to MRVVECLMRSLCRLDVRVHC, the amyloid nucleation score result is “inactive”.

For the substance RNCVSSGCCRRFSD, the amyloid nucleation score result is “inactive”.

As to SLKCLLLVMTCSLTSHAPPA, the amyloid nucleation score entry was “inactive”.

Turning to TKECGKKFNYWVRIDLSRLW, the amyloid nucleation score entry is “inactive”.

For the substance WNLHLLICEKSHTMEVMLLR, the amyloid nucleation score result is “inactive”.

ELLLMCIDDVSMRFITPLEY: the amyloid nucleation score entry was “inactive”.

As to LNTRVGSFTNRLWSRMKEGG, the amyloid nucleation score result is “inactive”.

As for LKDWVRYGVEIQAVSMGILV, the amyloid nucleation score came out at 0.221 ± 0.16.

Regarding ICFFRGAARMNCLGYQGITR, the amyloid nucleation score entry is “inactive”.

For HIKKRYKLLAMLLMSDLR, the amyloid nucleation score entry was “inactive”.

Regarding DSGCLAMF, the amyloid nucleation score entry is “inactive”.

As to VHYYEE, the amyloid nucleation score entry was “inactive”.

With VCIRTFLSLVSDCNACWSQL, the amyloid nucleation score result was “inactive”.

Turning to WKAFNVTPFRGWVNVAVLA, the amyloid nucleation score result is “inactive”.

For the substance FNIMVYCNESSL, the amyloid nucleation score result was “inactive”.

Turning to VIWGTPQFSFAEVREFDLVH, the amyloid nucleation score result was “inactive”.

Turning to SRIKD, the amyloid nucleation score result was “inactive”.

As for NLNYWAFDYADKLIEHSCVR, the amyloid nucleation score entry is “inactive”.

As to GTNIFVKTDTYCPFICST, the amyloid nucleation score entry is “inactive”.

Turning to RTPHELKFRCSFQKVWQGMV, the amyloid nucleation score result was “inactive”.

With SCFTEIEWS, the amyloid nucleation score result is “inactive”.

Consider LAEVMTVLLFDYVNHWGSAI, for which the amyloid nucleation score entry is “inactive”.

For AVFTCCCPRK, the amyloid nucleation score entry was “inactive”.

In the case of SRSSWGPSAIPYYKKLFMLF, the amyloid nucleation score result is “inactive”.

On to RFCRRVHMRLDAVGTCVRWW, for which the amyloid nucleation score result is “inactive”.

As for VIQGLYSSFMHVYG, the amyloid nucleation score result was “inactive”.

For the substance RLNHKVFRSLCKKFLRWHGS, the amyloid nucleation score entry is “inactive”.

Turning to APLYTANAMHSRCILSWVFL, the amyloid nucleation score was 2.25 ± 0.082.

CRTQL: the amyloid nucleation score entry is “inactive”.

Consider VILQMT, for which the amyloid nucleation score result was “inactive”.

Substance WCASMRNVCYFVVFMESKLS yielded an amyloid nucleation score of 0.294 ± 0.44.

Turning to QVLASTNATESCRIDRDTVV, the amyloid nucleation score entry is “inactive”.

LCGYGSGKTISG: the amyloid nucleation score result was “inactive”.

For the substance AILLNWNCVNFPCFEIYPYL, the amyloid nucleation score stood at 1.7 ± 0.063.

As to WLVKGPVCKGSAS, the amyloid nucleation score is -0.116 ± 1.1.

As to ALFSFDNSNYMVSNGAIGRV, the amyloid nucleation score is -0.167 ± 0.75.

On to PHRGACMARTLSEVFCRAGS, for which the amyloid nucleation score result is “inactive”.

Consider LCQTVCRAPI, for which the amyloid nucleation score entry is “inactive”.

For the substance SRNPEAEHRIIMRAQSTGYF, the amyloid nucleation score result was “inactive”.

With INFNLVHRLEVFWRVI, the amyloid nucleation score entry is “inactive”.

Regarding GFWLGVMVTHTSTTYSAFTP, the amyloid nucleation score is 0.059 ± 0.29.

Turning to KANRFRVVMLGVDGVCAFQS, the amyloid nucleation score result is “inactive”.

On to NMHRNSSIRDRSVIRTWGMV, for which the amyloid nucleation score entry is “inactive”.

Consider DFTDYMPIMYTLHRVVIQMY, for which the amyloid nucleation score entry is “inactive”.

With LGGYFLFNIITVGSTGMRKH, the amyloid nucleation score stood at 2.06 ± 0.089.

For FNKGYV, the amyloid nucleation score entry is “inactive”.

FTCEPARFKDYQWNNEGYCL: the amyloid nucleation score entry was “inactive”.

In the case of RLRYIGSILLLRRKVVFLMH, the amyloid nucleation score result was “inactive”.

As for VTILMLNHYSYTSLLMRKFN, the amyloid nucleation score amounted to 0.704 ± 0.12.

The substance INSSILGSCLWWFLFCF yielded an amyloid nucleation score of 1.2 ± 0.12.

QGLSGRRGYSDRY: the amyloid nucleation score entry was “inactive”.

In the case of DFRLPNSPYAHCYLMHRLII, the amyloid nucleation score entry is “inactive”.

TKSAYRWSRKVRNEFQGSMG: the amyloid nucleation score result is “inactive”.

Consider DWEDCVV, for which the amyloid nucleation score result was “inactive”.

With ILVFVFSLRRIFAYMAVMSG, the amyloid nucleation score entry is “inactive”.

With TVSGNKYISDRVQN, the amyloid nucleation score entry is “inactive”.

Turning to VTSGLERTMFSGNKRRIEVS, the amyloid nucleation score entry is “inactive”.

Regarding WLLEKYKLCMGWFFYSDFLT, the amyloid nucleation score entry was “inactive”.

NYNCVVDNLSGKCMNEILGY had an amyloid nucleation score of 1.09 ± 0.097.

Substance RFFSFFIT displayed an amyloid nucleation score of 2.44 ± 0.055.

In the case of NSVNMTRCRVYTCFAFCNW, the amyloid nucleation score was 3.13 ± 0.07.
